Experimental data taken from US20140087995A1 (published 2014).
Numbered stars: 1 amine (or outer) side, 2 acyl side, 3 side chain; on linkers, the order of the positions; unused ones are H or OH. Bridge positions count the residues as written; N and C are the ends. Side chains are listed from the residue outwards. Ends that are not written are not given here. * marks the point of attachment. C20 diacid = O=C(O)CCCCCCCCCCCCCCCCCCC(=O)*; γGlu = O=C(O)[C@H](CCC(=O)[*:2])N[*:1]; AEEA = NCCOCCOCC(=O)O

T1: human amylin receptor (amylin 3(a) receptor: human calcitonin receptor with RAMP-3) (human, UniProt P30988 25-474; O60896 24-148)
T1 construct: whole, on cells; Used as cell membranes of the Amylin 3(a)/CRE-luc BHK cells; the species of RAMP-3 is only implied by the name human amylin receptor; also called hAmylin-R; hAmylinR
T1 sequence (looked up) 1: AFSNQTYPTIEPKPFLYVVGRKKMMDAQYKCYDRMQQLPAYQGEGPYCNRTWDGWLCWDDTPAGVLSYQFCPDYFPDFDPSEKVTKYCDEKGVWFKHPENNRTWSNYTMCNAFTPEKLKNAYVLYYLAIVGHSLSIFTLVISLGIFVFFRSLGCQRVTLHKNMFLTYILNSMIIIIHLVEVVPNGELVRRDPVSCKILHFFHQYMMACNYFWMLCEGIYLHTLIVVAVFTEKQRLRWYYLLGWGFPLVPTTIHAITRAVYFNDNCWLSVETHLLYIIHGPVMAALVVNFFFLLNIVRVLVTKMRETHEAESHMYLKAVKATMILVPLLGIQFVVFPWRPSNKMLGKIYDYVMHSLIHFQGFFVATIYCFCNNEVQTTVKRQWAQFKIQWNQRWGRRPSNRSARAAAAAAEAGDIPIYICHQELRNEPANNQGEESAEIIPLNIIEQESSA
T1 sequence (looked up) 2: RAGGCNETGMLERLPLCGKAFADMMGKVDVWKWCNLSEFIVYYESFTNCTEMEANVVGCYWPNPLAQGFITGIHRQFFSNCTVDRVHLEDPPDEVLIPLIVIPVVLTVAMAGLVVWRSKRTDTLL

T2: human calcitonin receptor (human, UniProt P30988 25-474)
T2 construct: whole, on cells; Used as cell membranes; also called hCTR; hCT
T2 sequence (looked up): T1 sequence (looked up) 1

B1: N^ε1-[2-[2-[2-[[2-[2-[2-[[(4S)-4-carboxy-4-(19-carboxynonadecanoylamino)butanoyl]amino]ethoxy]ethoxy]acetyl]amino]ethoxy]ethoxy]acetyl]-[Arg17,Pro21,Pro27,Arg34 … (peptide)
peptide: K([AEEA-AEEA-γGlu-C20 diacid])CNTATCATQRLANFLRHSSPNFGAIPSSTNVGRNTY-NH2
modifications: disulfide 2-7; N-terminus assumed
SMILES: CC[C@H](C)[C@H](NC(=O)[C@H](C)NC(=O)CNC(=O)[C@H](Cc1ccccc1)NC(=O)[C@H](CC(N)=O)NC(=O)[C@@H]1CCCN1C(=O)[C@H](CO)NC(=O)[C@H](CO)NC(=O)[C@H](Cc1c[nH]cn1)NC(=O)[C@H](CCCNC(=N)N)NC(=O)[C@H](CC(C)C)NC(=O)[C@H](Cc1ccccc1)NC(=O)[C@H](CC(N)=O)NC(=O)[C@H](C)NC(=O)[C@H](CC(C)C)NC(=O)[C@H](CCCNC(=N)N)NC(=O)[C@H](CCC(N)=O)NC(=O)[C@@H](NC(=O)[C@H](C)NC(=O)[C@@H]1CSSC[C@H](NC(=O)[C@@H](N)CCCCNC(=O)COCCOCCNC(=O)COCCOCCNC(=O)CC[C@H](NC(=O)CCCCCCCCCCCCCCCCCCC(=O)O)C(=O)O)C(=O)N[C@@H](CC(N)=O)C(=O)N[C@@H]([C@@H](C)O)C(=O)N[C@@H](C)C(=O)N[C@@H]([C@@H](C)O)C(=O)N1)[C@@H](C)O)C(=O)N1CCC[C@H]1C(=O)N[C@@H](CO)C(=O)N[C@@H](CO)C(=O)N[C@H](C(=O)N[C@@H](CC(N)=O)C(=O)N[C@H](C(=O)NCC(=O)N[C@@H](CCCNC(=N)N)C(=O)N[C@@H](CC(N)=O)C(=O)N[C@H](C(=O)N[C@@H](Cc1ccc(O)cc1)C(N)=O)[C@@H](C)O)C(C)C)[C@@H](C)O
notes: also called compound 95
B2: N^ε1-[(4S)-4-carboxy-4-[[(4S)-4-carboxy-4-(19-carboxynonadecanoylamino)butanoyl]amino]butanoyl]-[Glu14,Arg17,Pro21,Pro27,Arg35]-h-amylin (peptide)
peptide: K([γGlu-γGlu-C20 diacid])CNTATCATQRLAEFLRHSSPNFGAIPSSTNVGSRTY-NH2
modifications: disulfide 2-7; N-terminus assumed
SMILES: CC[C@H](C)[C@H](NC(=O)[C@H](C)NC(=O)CNC(=O)[C@H](Cc1ccccc1)NC(=O)[C@H](CC(N)=O)NC(=O)[C@@H]1CCCN1C(=O)[C@H](CO)NC(=O)[C@H](CO)NC(=O)[C@H](Cc1c[nH]cn1)NC(=O)[C@H](CCCNC(=N)N)NC(=O)[C@H](CC(C)C)NC(=O)[C@H](Cc1ccccc1)NC(=O)[C@H](CCC(=O)O)NC(=O)[C@H](C)NC(=O)[C@H](CC(C)C)NC(=O)[C@H](CCCNC(=N)N)NC(=O)[C@H](CCC(N)=O)NC(=O)[C@@H](NC(=O)[C@H](C)NC(=O)[C@@H]1CSSC[C@H](NC(=O)[C@@H](N)CCCCNC(=O)CC[C@H](NC(=O)CC[C@H](NC(=O)CCCCCCCCCCCCCCCCCCC(=O)O)C(=O)O)C(=O)O)C(=O)N[C@@H](CC(N)=O)C(=O)N[C@@H]([C@@H](C)O)C(=O)N[C@@H](C)C(=O)N[C@@H]([C@@H](C)O)C(=O)N1)[C@@H](C)O)C(=O)N1CCC[C@H]1C(=O)N[C@@H](CO)C(=O)N[C@@H](CO)C(=O)N[C@H](C(=O)N[C@@H](CC(N)=O)C(=O)N[C@H](C(=O)NCC(=O)N[C@@H](CO)C(=O)N[C@@H](CCCNC(=N)N)C(=O)N[C@H](C(=O)N[C@@H](Cc1ccc(O)cc1)C(N)=O)[C@@H](C)O)C(C)C)[C@@H](C)O
notes: also called compound 89
B3: N^ε1-[(4S)-4-carboxy-4-(19-carboxynonadecanoylamino)butanoyl]-[His14,Arg17,Pro21,Pro27,Arg34]-h-amylin (peptide)
peptide: K([γGlu-C20 diacid])CNTATCATQRLAHFLRHSSPNFGAIPSSTNVGRNTY-NH2
modifications: disulfide 2-7; N-terminus assumed
SMILES: CC[C@H](C)[C@H](NC(=O)[C@H](C)NC(=O)CNC(=O)[C@H](Cc1ccccc1)NC(=O)[C@H](CC(N)=O)NC(=O)[C@@H]1CCCN1C(=O)[C@H](CO)NC(=O)[C@H](CO)NC(=O)[C@H](Cc1c[nH]cn1)NC(=O)[C@H](CCCNC(=N)N)NC(=O)[C@H](CC(C)C)NC(=O)[C@H](Cc1ccccc1)NC(=O)[C@H](Cc1c[nH]cn1)NC(=O)[C@H](C)NC(=O)[C@H](CC(C)C)NC(=O)[C@H](CCCNC(=N)N)NC(=O)[C@H](CCC(N)=O)NC(=O)[C@@H](NC(=O)[C@H](C)NC(=O)[C@@H]1CSSC[C@H](NC(=O)[C@@H](N)CCCCNC(=O)CC[C@H](NC(=O)CCCCCCCCCCCCCCCCCCC(=O)O)C(=O)O)C(=O)N[C@@H](CC(N)=O)C(=O)N[C@@H]([C@@H](C)O)C(=O)N[C@@H](C)C(=O)N[C@@H]([C@@H](C)O)C(=O)N1)[C@@H](C)O)C(=O)N1CCC[C@H]1C(=O)N[C@@H](CO)C(=O)N[C@@H](CO)C(=O)N[C@H](C(=O)N[C@@H](CC(N)=O)C(=O)N[C@H](C(=O)NCC(=O)N[C@@H](CCCNC(=N)N)C(=O)N[C@@H](CC(N)=O)C(=O)N[C@H](C(=O)N[C@@H](Cc1ccc(O)cc1)C(N)=O)[C@@H](C)O)C(C)C)[C@@H](C)O
notes: also called compound 85
B4: N^ε1-[(4S)-4-carboxy-4-(19-carboxynonadecanoylamino)butanoyl]-[Arg14,Arg17,Pro21,Pro27]-h-amylin (peptide)
peptide: K([γGlu-C20 diacid])CNTATCATQRLARFLRHSSPNFGAIPSSTNVGSNTY-NH2
modifications: disulfide 2-7; N-terminus assumed
SMILES: CC[C@H](C)[C@H](NC(=O)[C@H](C)NC(=O)CNC(=O)[C@H](Cc1ccccc1)NC(=O)[C@H](CC(N)=O)NC(=O)[C@@H]1CCCN1C(=O)[C@H](CO)NC(=O)[C@H](CO)NC(=O)[C@H](Cc1c[nH]cn1)NC(=O)[C@H](CCCNC(=N)N)NC(=O)[C@H](CC(C)C)NC(=O)[C@H](Cc1ccccc1)NC(=O)[C@H](CCCNC(=N)N)NC(=O)[C@H](C)NC(=O)[C@H](CC(C)C)NC(=O)[C@H](CCCNC(=N)N)NC(=O)[C@H](CCC(N)=O)NC(=O)[C@@H](NC(=O)[C@H](C)NC(=O)[C@@H]1CSSC[C@H](NC(=O)[C@@H](N)CCCCNC(=O)CC[C@H](NC(=O)CCCCCCCCCCCCCCCCCCC(=O)O)C(=O)O)C(=O)N[C@@H](CC(N)=O)C(=O)N[C@@H]([C@@H](C)O)C(=O)N[C@@H](C)C(=O)N[C@@H]([C@@H](C)O)C(=O)N1)[C@@H](C)O)C(=O)N1CCC[C@H]1C(=O)N[C@@H](CO)C(=O)N[C@@H](CO)C(=O)N[C@H](C(=O)N[C@@H](CC(N)=O)C(=O)N[C@H](C(=O)NCC(=O)N[C@@H](CO)C(=O)N[C@@H](CC(N)=O)C(=O)N[C@H](C(=O)N[C@@H](Cc1ccc(O)cc1)C(N)=O)[C@@H](C)O)C(C)C)[C@@H](C)O
notes: also called compound 83

Target: T1, human amylin receptor (amylin 3(a) …)
Test: SPA competition on BHK cell membranes, 125I-rat amylin as radioligand (Assay V)
Description: The binding assay was performed using scintillation proximity assay (SPA) beads (RPNQ0001) from PerkinElmer and cell membranes from the Amylin 3(a)/CRE-luc cells (as described in Assay (II)) were used. Membranes were prepared in the following way; the cells were rinsed with PBS and incubated with Versene for approximately 5 min before harvesting. The cells were flushed with PBS and the cell-suspension was centrifuged for 5 min at 1000 rpm. Cells were homogenized (ultrathurrax) in a buffer containing 20 mM Na-HEPES and 10 mM EDTA (pH 7.4) and centrifuged at 20.000 rpm for 15 min. The resulting pellet was resuspended, homogenized and centrifuged (20.000 rpm, 15 min) in a buffer containing 20 mM Na-HEPES and 0.1 mM EDTA (pH 7.4, buffer 2). The resulting pellet was resuspended in buffer 2 and protein concentration was measured (BCA protein Assay, Pierce). The homogenate was kept cold during the whole procedure. The membranes were kept at −80° C. until use. The assay was performed in a 384 well Optiplate (PerkinElmer) in a total volume of 40 ul. Membranes were mixed with SPA beads. Final concentration of membranes 35 ng/μL final and SPA beads was 0.05 mg/well. Test-compounds were dissolved in DMSO and further diluted in assay buffer (50 mM Hepes, pH 7.4, 1 mM CaCl2, 5 mM MgCl₂, 0.1% OA and 0.02% Tween20). […] The final mixture was incubated with shaking at 400 rpm for 120 min at 25° C. prior to centrifugation (1500 rpm, 10 min). Samples were analyzed on TopCounter™ (Packard). The IC₅₀ was calculated using (one site binding competition analysis) GraphPad Prism5 as a measure of receptor affinity.

IC50 [nM]	Binder
0.967	B1
1.16	B2
0.876	B3
0.939	B4

Target: T2, human calcitonin receptor
Test: SPA competition on BHK cell membranes, 125I-calcitonin as radioligand (Assay VII)
Outline: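 BHK hCTR membranes 35 ng/μL + SPA beads 0.05 mg/well; buffer 50 mM Hepes pH 7.4, 1 mM CaCl2, 5 mM MgCl₂, 0.1% OA, 0.02% Tween20. 120 min, 25° C., shaking. Scintillation count; IC50 by one-site binding competition.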

IC50 [nM]	Binder
61.3	B1
32.5	B2
80.4	B3
137	B4

Target: T2, human calcitonin receptor
Test: ratio of hCTR IC50 to hAmylin-R IC50 (reference: human amylin receptor)
Outline: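 Scintillation proximity competition binding on cell membranes at 35 ng/μL with SPA beads, in 50 mM Hepes pH 7.4, 1 mM CaCl2, 5 mM MgCl₂, 0.1% OA, 0.02% Tween20. Incubated 120 min at 25° C with shaking. IC₅₀ from one-site competition fit.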

Ratio hCT/hAmylin binding	Binder
63.4	B1
28	B2
91.8	B3
146	B4
